Assay results: paper PMC7801515

What was measured:
Assay in all cases: flow cytometry on cells
[1] = molecular target: SARS-CoV-2 S glycoprotein T415A, full-length, cell surface-expressed (SARS-CoV-2) (UniProt P0DTC2)
[2] = molecular target: SARS-CoV-2 S glycoprotein Y473A, full-length, cell surface-expressed (SARS-CoV-2) (UniProt P0DTC2)
[3] = molecular target: SARS-CoV-2 S glycoprotein Y421A, full-length, cell surface-expressed (SARS-CoV-2) (UniProt P0DTC2)
[4] = molecular target: SARS-CoV-2 S glycoprotein R457A, full-length, cell surface-expressed (SARS-CoV-2) (UniProt P0DTC2)

Measured: percent reduction in binding (MFI relative to wild type)

P2C-1F11 monoclonal antibody
> 50%: [1] | [2] | [3] | [4]
